From patent US20170335007A1 (Xencor, published 2017)
Substitutions are numbered along the chain they refer to. Each block holds one binder with its values, some of them ahead of it.

Columns and labels:
[1] = target: T1, recombinant human CD39 (R&D Systems) (human, UniProt P49961 38-478); test: SPR (ProteOn XPR36); antibody captured by anti-mouse antibody, CD39 in solution, 1:1 fit
T1 construct: bought; also called CD39 antigen (R&D Systems); ENTPD1
T1 sequence: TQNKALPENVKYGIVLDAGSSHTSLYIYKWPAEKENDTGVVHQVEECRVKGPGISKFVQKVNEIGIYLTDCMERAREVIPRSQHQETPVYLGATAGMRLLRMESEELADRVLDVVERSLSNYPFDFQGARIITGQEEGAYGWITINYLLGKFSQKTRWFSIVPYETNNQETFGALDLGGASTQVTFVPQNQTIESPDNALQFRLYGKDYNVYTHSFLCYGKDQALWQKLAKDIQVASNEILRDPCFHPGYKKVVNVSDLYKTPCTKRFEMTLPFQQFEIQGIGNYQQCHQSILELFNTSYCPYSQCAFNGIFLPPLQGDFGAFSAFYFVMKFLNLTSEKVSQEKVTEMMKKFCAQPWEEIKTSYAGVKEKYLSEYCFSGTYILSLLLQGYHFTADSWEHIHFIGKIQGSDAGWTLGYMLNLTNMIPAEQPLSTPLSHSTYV
Method: (§1) Affinity measurements of four exemplary purified anti-CD39 antibodies (5-13A, 5-71A, 5-165C and 9-31A) were also carried on the ProteOn XPR36 (BioRad) using a GLM sensor chip. The running buffer contained 10 mM HEPES, 150 mM NaCl, 0.005% Tween-20 at pH 7.4. All data were collected at 25 degrees C. Anti-mouse capturing antibody was amine coupled at four densities on flow cells using standard s—NHS/EDC activation. A dilution series of […], 16.6, 5.5 and 1.85 nM CD39 antigen (R&D Systems) was tested for binding to the anti-CD39 antibody surfaces. The data were processed by subtracting the response from the inter-reference surfaces as well as the buffer blank injection. The processed response data from four density surfaces were globally fit to a simple 1:1 interaction model using Scrubber 2 (Biologic Software Pty Ltd).

[2] = target: T2, human CD39 expressed on cells (human, UniProt P49961 1-510); test: cell-based or functional assay
T2 sequence: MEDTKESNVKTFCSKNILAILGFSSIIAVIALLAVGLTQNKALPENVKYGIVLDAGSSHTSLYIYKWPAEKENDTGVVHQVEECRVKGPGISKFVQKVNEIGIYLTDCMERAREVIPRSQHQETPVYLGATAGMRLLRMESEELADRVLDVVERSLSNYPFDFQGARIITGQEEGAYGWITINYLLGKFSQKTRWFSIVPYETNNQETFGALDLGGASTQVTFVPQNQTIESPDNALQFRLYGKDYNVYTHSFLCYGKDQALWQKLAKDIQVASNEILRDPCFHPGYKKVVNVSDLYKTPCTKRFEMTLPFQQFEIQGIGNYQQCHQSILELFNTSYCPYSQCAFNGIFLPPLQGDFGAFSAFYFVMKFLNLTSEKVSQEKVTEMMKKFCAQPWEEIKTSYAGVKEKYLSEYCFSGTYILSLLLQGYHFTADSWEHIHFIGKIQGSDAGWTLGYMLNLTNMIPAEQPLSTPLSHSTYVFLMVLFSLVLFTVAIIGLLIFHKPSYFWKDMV

[3] = target: T2, human CD39 expressed on cells; test: cell-based or functional assay; remark: listed apart in the source
[4] = target: T1, recombinant human CD39 (R&D Systems); test: BLI (Octet QK384); antibody on anti-mouse IgG Fc sensor, recombinant human CD39 in solution
Method: Additional binding assays were conducted. Affinity measurements of thirty-five purified anti-CD39 antibodies as described in Example 2 were carried out on the OctetQK384 sytem (ForteBio). After coating anti-mouse IgG Fc sensors with a purified anti-CD39 antibody, association and dissociation of recombinant human CD39 (R&D Systems) was monitored. Affinity (KD) and kinetic constants (ka and kd) were derived using ForteBio's software.

[5] = target: T2, human CD39 expressed on cells; test: cell-based or functional assay; remark: listed apart in the source
[6] = target: T2, human CD39 expressed on cells; test: flow cytometry on JVM-13 cells (endogenous human CD39)
Method: Binding of antibody was also assessed in a cell line that expresses endogenous human CD39 (e.g. the B-prolymphocytic leukemia cell line JVM-13). Thirty-five anti-CD39 antibodies as described in Example 2 were tested for their binding to JVM-13 cells. […] Median fluorescence intensities for each primary antibody concentration were used to derive a flow EC50/Kd using the one site—specific binding with Hill slope model in Prism (GraphPad Prism Software). Results are shown as Flow EC50 in Table 8.

[7] = target: T1, recombinant human CD39 (R&D Systems); test: SPR (ProteOn XPR36); antibody captured by anti-mouse antibody, CD39 in solution, 1:1 fit; ProteOn XPR36 SPR, Table 9
Method: as §1

B1: anti-CD39 monoclonal antibody 5-13A (antibody, V domains shown)
VH: QVQLQQSGPELVKPGASVRISCKASGYTFTGYYVHWVKQRPGQGLEWIGWIYPGNVNTKYNEKFKAKATLTADKSSSTGYMQLSRLTSEDSAVYFCARSPYYGTTYYYTMDYWGQGTSVTVSS
VL: EIVLTQSPAFMAASPGEKVTITCSVSLIISSRNLHWYQQKSETSPKPWIYGTSNLASGVPVRFSGSGSGTSYSLTISSMEAEDAATYYCQQWSDYPLTFGSGTKLEIK
notes: purified mouse hybridoma antibody, IgG2a isotype; also called R21-5-13A; R29-5-13A
Kd [1]: 1.16 nM
koff [1]: 0.000221 s⁻¹
kon [1]: 191000 M⁻¹ s⁻¹
% Inhibition of ATPase Activity in HUVEC cells (antibody at 900 ng/mL) [2]: -4.4%
% Inhibition of ATPase Activity in IM-9 cells (antibody at 1200 ng/mL) [3]: 0.8%
Kd [4]: 1.52 nM
koff [4]: 0.000159 s⁻¹
kon [4]: 105000 M⁻¹ s⁻¹
% Inhibition of ATPase Activity in ARH-77 cells (antibody at 1200 ng/mL) [5]: -6.2%
EC50 [6]: 0.18 nM

B3: anti-CD39 monoclonal antibody 5-71A (antibody, V domains shown)
VH: DVQLVESGGGLVQPGGSRKLSCAASGFTFSSFGMHWVRQAPEKGLELVAYISSGSTIRYYSDTVKGRFTISRDNPKNTLFLQMTSLRSEDTAMYYCARFLYEGFRYGMDYWGQGTSVTVSS
VL: DVLMTQTPLSLPVSLGDQASISCRSSQSIVHSNGNTYLEWYLQKPGQSPKLLIYKVSNRFSGVPDRFSGSGSGTDFTLKISRVEAEDLGIYYCFQGSHVPNTFGGGTKLEIK
notes: purified mouse hybridoma antibody, IgG2a isotype; also called R21-5-71A; R29-5-71A
Kd [1]: 0.09 nM
koff [1]: 1.4e-05 s⁻¹
kon [1]: 153000 M⁻¹ s⁻¹
Kd [4]: 0.73 nM
koff [4]: 5.22e-05 s⁻¹
kon [4]: 71100 M⁻¹ s⁻¹
% Inhibition of ATPase Activity in ARH-77 cells (antibody at 1200 ng/mL) [5]: 3.6%
EC50 [6]: 0.09 nM

Results, then the binder that gave them:

% Inhibition of ATPase Activity in HUVEC cells (antibody at 900 ng/mL) [2]: -9.8%
% Inhibition of ATPase Activity in IM-9 cells (antibody at 1200 ng/mL) [3]: -0.1%
Kd [7]: 1.25 nM
koff [7]: 0.000109 s⁻¹
kon [7]: 87500 M⁻¹ s⁻¹
Kd [4]: 2.53 nM
koff [4]: 0.000196 s⁻¹
kon [4]: 77400 M⁻¹ s⁻¹
% Inhibition of ATPase Activity in ARH-77 cells (antibody at 1200 ng/mL) [5]: -2.5%
EC50 [6]: 0.11 nM
B2: anti-CD39 monoclonal antibody 5-165C (antibody, V domains shown)
VH: EVQLVESGGDLVKPGGSLKLSCAAFGFTFSRYGMSWVRQTPDKRLEWVATITSGGIYTYYPDSVKGRFTISRDNAKNTLYLQMSSLKSEETAMYYCARHGQFGDYYGMDYWGQGTSVTVSS
VL: B3 VL with L3V, I29L, V30L, E39H, I90V, Y92F, F94S, G96S, S97T, N101Y
notes: purified mouse hybridoma antibody, IgG2a isotype; also called R21-5-165C; R29-5-165C

% Inhibition of ATPase Activity in HUVEC cells (antibody at 900 ng/mL) [2]: 33.7%
% Inhibition of ATPase Activity in IM-9 cells (antibody at 1200 ng/mL) [3]: 29.8%
Kd [4]: 3.1 nM
koff [4]: 0.000848 s⁻¹
kon [4]: 273000 M⁻¹ s⁻¹
% Inhibition of ATPase Activity in ARH-77 cells (antibody at 1200 ng/mL) [5]: 36.5%
EC50 [6]: 0.26 nM
B4: anti-CD39 monoclonal antibody 9-8B (antibody, V domains shown)
VH: QIQLVQSGPELKKPGETVKISCKASGYTFTHYGMNWVKQAPGKGLKWMGWINTYTGELTYADDFKGRFAFSLETSASTAYLQINNLKNEDTATYFCARRAYYRYDYVMDYWGQGTSVTVSS
VL: DIVMTQSQKFMSTSVGDRVSVTCKASHNVGTNVAWYQQKPGQSPKALIYSASYRYSGVPGRFTGSGSGTDFTLTISNVQSEDLAEYFCHQYNNYPYTFGGGTKLEIK
notes: purified mouse hybridoma antibody, IgG2a isotype; also called R21-9-8B; R29-9-8B
